Measured values as given in US20240254246A1 (PROMETHEUS BIOSCIENCES, published 2024).
Like-named read-outs stand apart in the source and are kept apart here.

Columns and labels:
[1] = target: T1, recombinant cynomolgus CD30L (cynomolgus, UniProt A0A7N9CVX7 63-234); test: ELISA, binding to purified rcyCD30L
T1 construct: Purified recombinant protein; also called rcyCD30L; cyno CD30L
T1 sequence: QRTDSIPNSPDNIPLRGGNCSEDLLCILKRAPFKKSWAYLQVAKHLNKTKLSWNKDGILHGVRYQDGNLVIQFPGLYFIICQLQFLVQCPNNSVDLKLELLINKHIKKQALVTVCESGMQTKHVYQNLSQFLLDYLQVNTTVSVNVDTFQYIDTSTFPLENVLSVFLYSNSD

recombinant human CD30L [2] = target: T2, recombinant human CD30L (human, UniProt P32971 63-234); test: ELISA, blocking of CD30-Fc binding to huCD30L (OD 450 nm)
T2 construct: Purified recombinant protein of ELISA, BLI, Carterra and KinExA; also called rhCD30L; huCD30L
T2 sequence (looked up): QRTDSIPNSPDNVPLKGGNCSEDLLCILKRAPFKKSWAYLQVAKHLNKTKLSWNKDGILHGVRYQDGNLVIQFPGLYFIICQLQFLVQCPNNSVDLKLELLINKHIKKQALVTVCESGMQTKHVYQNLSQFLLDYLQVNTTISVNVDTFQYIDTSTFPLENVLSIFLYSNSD

recombinant human CD30L [3] = target: T2, recombinant human CD30L; test: ELISA, Neutralization of CD30-Fc binding to immobilized human CD30L (Absorbance 450 nm)
[4] = target: T3, human CD30L expressed on B16 cells (human, UniProt P32971 1-234); test: flow cytometry, blocking of CD30-Fc on B16-huCD30L cells; competitor CD30-Fc
T3 construct: whole, on cells; B16 cell line transfected to express human CD30L; also called B16-huCD30L; B16-rhCD30L
T3 sequence (looked up): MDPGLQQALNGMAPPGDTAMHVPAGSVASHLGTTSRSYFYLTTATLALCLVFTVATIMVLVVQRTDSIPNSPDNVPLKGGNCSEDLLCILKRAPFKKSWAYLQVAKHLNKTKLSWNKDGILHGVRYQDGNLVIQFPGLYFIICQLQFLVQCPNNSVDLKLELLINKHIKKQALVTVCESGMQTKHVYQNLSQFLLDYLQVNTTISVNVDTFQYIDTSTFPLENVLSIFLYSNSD

[5] = target: T3, human CD30L expressed on B16 cells; test: cell-based or functional assay
[6] = target: T1, recombinant cynomolgus CD30L; test: ELISA, blocking of CD30-Fc on rcyCD30L; competitor CD30-Fc
recombinant human CD30L [7] = target: T2, recombinant human CD30L; test: ELISA, binding to rhCD30L (OD 450 nm)
recombinant human CD30L [8] = target: T2, recombinant human CD30L; test: ELISA, Binding to CD30L, immobilized human CD30L (Absorbance 450 nm)
[9] = target: T4, cynomolgus CD30L expressed on HEK293 cells (cynomolgus, UniProt A0A7N9CVX7 1-234); test: flow cytometry, binding to HEK293-cyCD30L cells
T4 construct: whole, on cells; also called HEK293-cyCD30L; HEK-cyCD30L
T4 sequence: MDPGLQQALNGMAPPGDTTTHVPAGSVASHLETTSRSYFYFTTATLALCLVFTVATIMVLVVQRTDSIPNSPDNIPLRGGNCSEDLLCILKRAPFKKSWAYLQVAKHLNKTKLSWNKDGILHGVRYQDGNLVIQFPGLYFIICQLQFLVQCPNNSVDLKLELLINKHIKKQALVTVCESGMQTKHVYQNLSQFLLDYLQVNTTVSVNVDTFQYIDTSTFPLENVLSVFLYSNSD

recombinant human CD30L [10] = target: T2, recombinant human CD30L; test: ELISA, blocking of CD30-Fc on huCD30L; competitor CD30-Fc
[11] = target: T3, human CD30L expressed on B16 cells; test: flow cytometry, B16-huCD30L/CD30-Fc Neutralization: blocking of CD30-Fc binding to B16-huCD30L cells
recombinant human CD30L [12] = target: T2, recombinant human CD30L; test: ELISA, binding to purified rhCD30L
[13] = target: T3, human CD30L expressed on B16 cells; test: cell-based or functional assay; remark: listed apart in the source
[14] = target: T4, cynomolgus CD30L expressed on HEK293 …; test: cell-based or functional assay
[15] = target: T4, cynomolgus CD30L expressed on HEK293 …; test: flow cytometry, blocking of CD30-Fc on HEK293-cyCD30L cells; competitor CD30-Fc
[16] = target: T4, cynomolgus CD30L expressed on HEK293 …; test: flow cytometry, Cell Binding to HEK293-cyCD30L (MFI)
[17] = target: T3, human CD30L expressed on B16 cells; test: cell-based or functional assay; remark: listed apart in the source
[18] = target: T1, recombinant cynomolgus CD30L; test: ELISA, Neutralization of CD30-Fc binding to immobilized cyno CD30L (Absorbance 450 nm)
[19] = target: T4, cynomolgus CD30L expressed on HEK293 …; test: flow cytometry, HEK293-cyCD30L/CD30-Fc Neutralization: blocking of CD30-Fc binding to HEK293-cyCD30L cells
[20] = target: T1, recombinant cynomolgus CD30L; test: ELISA, Binding to CD30L, immobilized cyno CD30L (Absorbance 450 nm)
[21] = target: T3, human CD30L expressed on B16 cells; test: flow cytometry, binding to B16-rhCD30L cells
CDH13 = target: T5, CDH13 (human, UniProt P55290 139-693); test: cell microarray, library and confirmation screens
T5 construct: whole, on cells; also called hit #16
T5 sequence (looked up): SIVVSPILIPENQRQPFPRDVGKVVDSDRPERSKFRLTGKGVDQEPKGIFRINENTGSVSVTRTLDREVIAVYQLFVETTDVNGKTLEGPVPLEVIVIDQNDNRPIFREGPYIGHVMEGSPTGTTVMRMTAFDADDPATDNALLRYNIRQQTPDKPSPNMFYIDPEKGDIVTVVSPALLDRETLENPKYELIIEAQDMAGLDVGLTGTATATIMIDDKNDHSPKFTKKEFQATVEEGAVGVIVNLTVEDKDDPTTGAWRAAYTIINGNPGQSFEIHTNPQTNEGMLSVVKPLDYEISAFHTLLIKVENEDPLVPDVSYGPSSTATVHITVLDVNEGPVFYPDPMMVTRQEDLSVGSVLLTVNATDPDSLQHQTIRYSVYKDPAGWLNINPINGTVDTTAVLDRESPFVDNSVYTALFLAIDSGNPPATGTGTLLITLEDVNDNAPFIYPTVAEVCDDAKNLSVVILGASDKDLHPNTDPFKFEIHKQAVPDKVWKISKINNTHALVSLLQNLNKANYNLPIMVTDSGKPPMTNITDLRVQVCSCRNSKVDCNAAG

[22] = target: T6, human CD30L expressed on cells (human, UniProt P32971 1-234); test: flow cytometry, blocking of CD30-Fc binding to human CD30L on cells; reference Ref1
T6 construct: also called huCD30L; B16-huCD30L
T6 sequence: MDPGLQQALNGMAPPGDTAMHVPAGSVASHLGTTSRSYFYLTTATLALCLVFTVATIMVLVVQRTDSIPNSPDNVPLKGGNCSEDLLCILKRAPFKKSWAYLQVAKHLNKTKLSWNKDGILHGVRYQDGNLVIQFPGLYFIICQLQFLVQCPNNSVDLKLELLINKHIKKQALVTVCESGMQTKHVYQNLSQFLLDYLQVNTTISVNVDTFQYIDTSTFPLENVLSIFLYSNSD

[23] = target: T7, cynomolgus CD30L expressed on cells (cynomolgus, UniProt A0A7N9CVX7 1-234); test: flow cytometry, blocking of CD30-Fc binding to cyno CD30L on cells; reference Ref1
T7 construct: whole, on cells; also called cyCD30L; HEK293-cyCD30L
T7 sequence: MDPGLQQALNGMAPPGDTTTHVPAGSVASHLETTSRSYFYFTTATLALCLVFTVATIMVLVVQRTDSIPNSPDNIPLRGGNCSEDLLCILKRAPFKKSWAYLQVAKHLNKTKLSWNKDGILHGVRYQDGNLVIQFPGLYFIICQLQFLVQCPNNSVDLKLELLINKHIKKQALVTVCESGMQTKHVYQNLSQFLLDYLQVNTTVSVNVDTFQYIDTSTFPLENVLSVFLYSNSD

[24] = target: T8, recombinant human CD30L protein (human, UniProt P32971 63-234); test: KinExA, Fab, human CD30L; reference Fab of Ref1
T8 construct: also called rhCD30L; huCD30L (ELISA)
T8 sequence (looked up): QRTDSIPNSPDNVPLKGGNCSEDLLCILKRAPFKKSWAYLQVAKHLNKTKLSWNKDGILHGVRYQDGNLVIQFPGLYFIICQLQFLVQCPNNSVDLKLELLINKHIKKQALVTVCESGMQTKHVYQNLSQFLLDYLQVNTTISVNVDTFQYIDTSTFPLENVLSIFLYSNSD
Description: (§1) For each experiment, CD30L antigen is titrated in a background of the Fab and allowed to reach equilibrium. The solutions are then briefly exposed to the solid phase and a portion of free Fab is captured. The captured Fab is then labeled with a fluorescent secondary molecule. The short contact time with the solid phase is less than the time needed for dissociation of the pre-formed complex in solution, thus competition between the solution and the solid phase titrated binding partner is kinetically excluded.
(§2) The signals generated from the captured Fab, which are directly proportional to the concentration of free Fab in the equilibrated samples, are used to determine the KD value. The KinExA Pro software performs a least squares analysis on the measured data to fit optimal solution for the KD and the activity of the Fab to a curve representative of a 1:1 reversible bi-molecular interaction.

recombinant human CD30L [25] = target: T2, recombinant human CD30L; test: KinExA, Fab in solution
Description: as §1, §2

[26] = target: T1, recombinant cynomolgus CD30L; test: KinExA, Fab in solution
Description: as §1, §2

[27] = target: T1, recombinant cynomolgus CD30L; test: KinExA, calculated as KD x kon
Protocol: (§3) To more precisely define and compare the binding affinities (dissociation equilibrium constant, KD), the association rate constant (on rate, kₒₙ), and the dissociation rate constant (off rate, koff), the kinetic exclusion assay (KinExA) was performed. KinExA measures the equilibrium binding affinity and kinetics between unmodified binding molecules in solution. For affinity analysis, the equilibrium dissociation constant, KD, is experimentally determined and reflects the strength of the binding interaction. The rate of association, kₒₙ, is also experimentally determined, while the rate of dissociation, koff, is calculated based on the equation: koff=Kd×kₒₙ.
A KD analysis requires immobilization of one interaction partner to a solid phase which is then used as a probe to capture the other interaction partner, the constant binding partner (Fab). For each experiment, CD30L antigen is titrated in a background of the Fab and allowed to reach equilibrium. The solutions are then briefly exposed to the solid phase and a portion of free Fab is captured. The captured Fab is then labeled with a fluorescent secondary molecule. The short contact time with the solid phase is less than the time needed for dissociation of the pre-formed complex in solution, thus competition between the solution and the solid phase titrated binding partner is kinetically excluded.

recombinant human CD30L [28] = target: T2, recombinant human CD30L; test: KinExA, calculated as KD x kon
Protocol: as §3

recombinant human CD30L [29] = target: T2, recombinant human CD30L; test: KinExA, Fab in solution; remark: listed apart in the source
Description: as §1, §2

recombinant human CD30L [30] = target: T2, recombinant human CD30L; test: KinExA, calculated as KD x kon; remark: listed apart in the source
Protocol: as §3

B1: anti-CD30L antibody clone 2 germlined (antibody, V domains shown)
VH: EVQLVESGGGLVQPGRSLRLSCAASGFNFDDYAMHWVRQAPGKGLEWVSGISWRSGNIGYADSVKGRFTISRDNAKNSLYLQMNSLRAEDTALYYCAKDKGIGFNWNYEGFDYWGQGTLVTVSS
VL: DIQMTQSPSSLSASVGDRVTITCRASQGISNHLAWFQQKPGKAPKSLIYAASSLQSGVPSRFSGSGSGTDFTLTISSLQPEDFATYYCQQYVTYPLTFGGGTKVEIK
notes: also called germlined clone 2
EC50 [1]: 0.05 nM
IC50 (read off the curve) (recombinant human CD30L [2]): ~2 nM
IC50 (read off the curve) (recombinant human CD30L [3]): ~2 nM
IC50 [4]: 0.67 nM
IC50 (read off the curve), IL-8 release, dual cell assay (B16-huCD30L cells + K299 cells) [5]: ~1 nM
IC50 [6]: 1.53 nM
EC50 (read off the curve) (recombinant human CD30L [7]): ~0.1 nM
EC50 (read off the curve) (recombinant human CD30L [8]): ~0.03 nM
EC50 [9]: 0.33 nM
IC50 (recombinant human CD30L [10]): 1.92 nM
IC50 (read off the curve) [11]: ~0.4 nM
EC50 (recombinant human CD30L [12]): 0.03 nM
Inhibition of IL-8 release in a dual cell assay (B16-huCD30L cells + K299 cells) IC50 [13]: 0.89 nM
Inhibition of IL-8 release in a dual cell assay (HEK293-cyCD30L cells + K299 cells) IC50 [14]: 0.41 nM
IC50 [15]: 0.34 nM
EC50 (read off the curve) [16]: ~0.3 nM
IC50 (read off the curve), IL-8 release, Dual Assay K299 + B16-huCD30L [17]: ~1 nM
IC50 (read off the curve) [18]: ~2 nM
IC50 (read off the curve) [19]: ~0.3 nM
EC50 (read off the curve) [20]: ~0.03 nM
EC50 [21]: 0.64 nM

B2: anti-CD30L antibody clone 2 germlined with IgG1 constant region SEQ ID NO: 502 (antibody)
heavy: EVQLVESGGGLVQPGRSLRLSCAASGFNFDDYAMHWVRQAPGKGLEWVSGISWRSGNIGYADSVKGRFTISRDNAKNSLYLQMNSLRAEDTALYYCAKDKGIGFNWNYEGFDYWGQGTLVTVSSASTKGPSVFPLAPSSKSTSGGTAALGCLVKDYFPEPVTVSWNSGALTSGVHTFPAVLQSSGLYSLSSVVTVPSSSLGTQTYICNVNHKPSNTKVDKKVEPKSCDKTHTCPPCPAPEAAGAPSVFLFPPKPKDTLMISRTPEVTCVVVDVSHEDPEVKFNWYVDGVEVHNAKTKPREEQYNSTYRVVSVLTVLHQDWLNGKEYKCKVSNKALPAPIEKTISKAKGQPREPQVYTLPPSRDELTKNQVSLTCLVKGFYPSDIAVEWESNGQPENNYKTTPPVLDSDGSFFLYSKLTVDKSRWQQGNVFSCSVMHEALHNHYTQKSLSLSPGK
VL: DIQMTQSPSSLSASVGDRVTITCRASQGISNHLAWFQQKPGKAPKSLIYAASSLQSGVPSRFSGSGSGTDFTLTISSLQPEDFATYYCQQYVTYPLTFGGGTKVEIK
notes: also called germlined clone 2; copies: 2 + 2
binding result (CDH13): no binding (tested: 5 µg/mL)
fold better IC50 than reference 1 (ref1) anti-CD30L [22]: 2.74 fold
fold better IC50 than reference 1 (ref1) anti-CD30L [23]: 2.13 fold

B3: Fab of clone 2 germlined (Fab, V domains shown)
VH: EVQLVESGGGLVQPGRSLRLSCAASGFNFDDYAMHWVRQAPGKGLEWVSGISWRSGNIGYADSVKGRFTISRDNAKNSLYLQMNSLRAEDTALYYCAKDKGIGFNWNYEGFDYWGQGTLVTVSS
VL: DIQMTQSPSSLSASVGDRVTITCRASQGISNHLAWFQQKPGKAPKSLIYAASSLQSGVPSRFSGSGSGTDFTLTISSLQPEDFATYYCQQYVTYPLTFGGGTKVEIK
notes: Fab used in KinExA; also called Fab of a representative anti-CD30L, clone 2 germlined
fold difference in KD against the reference 1 anti-CD30L [24]: 4.2 fold

B4: Fab of clone 2 germlined (Fab, V domains shown)
VH: EVQLVESGGGLVQPGRSLRLSCAASGFNFDDYAMHWVRQAPGKGLEWVSGISWRSGNIGYADSVKGRFTISRDNAKNSLYLQMNSLRAEDTALYYCAKDKGIGFNWNYEGFDYWGQGTLVTVSS
VL: DIQMTQSPSSLSASVGDRVTITCRASQGISNHLAWFQQKPGKAPKSLIYAASSLQSGVPSRFSGSGSGTDFTLTISSLQPEDFATYYCQQYVTYPLTFGGGTKVEIK
notes: Fab; also called Fab of a representative anti-CD30L, clone 2 germlined
Kd (recombinant human CD30L [25]): 0.0905 nM
kon (recombinant human CD30L [25]): 1.55e+06 M⁻¹ s⁻¹
Kd [26]: 0.122 nM
kon [26]: 3.1e+06 M⁻¹ s⁻¹
koff [27]: 0.000378 s⁻¹
koff (recombinant human CD30L [28]): 0.000141 s⁻¹

B5: Fab of the reference 1 (ref1) anti-CD30L (Fab, V domains shown)
VH: QVQLQESGPGLVKPSETLSLTCTVSGGSISSYIWSWIRQPAGKGLEWIGRIYASGNTNYNPSLKSRVTISVDTSKNQFSLKLSSMTAADTAVYYCARDYRVAGTYYYYYGLDVWGQGTTVTVSS
VL: QSALTQPASVSGSPGQSITISCTGTSSDVGVYDYVSWYQQHPGKAPKLMIYEVSNRPSGVSNRFSGSKSGNTASLTISGLQTEDEADYYCSSYTSRSTWVFGGGTKLTVL
notes: Fab
Kd (recombinant human CD30L [29]): 0.377 nM
kon (recombinant human CD30L [29]): 937000 M⁻¹ s⁻¹
koff (recombinant human CD30L [30]): 0.000353 s⁻¹
